Key:
[1] = molecular target: human CLDN18.2 as used in the Octet assay (human); test: Octet (BLI); format not described
[2] = molecular target: recombinant 6xHis tagged human CLDN18.2 (human); test: SPR (Biacore T200), His tagged CLDN18.2 amine-coupled on CM5, antibody as analyte, 1:1 fit
[3] = molecular target: recombinant 6xHis tagged human CLDN18.2 (human); test: SPR (Biacore); same values as Table 30

- Kd [1]: 0.0016 µM
- Kd [2]: 0.115 µM
- Kd [3]: 0.115 µM
Substance: IMAB362 (Zolbetuximab) (antibody)
